The supplement of paper PMC10065799, “High-throughput profiling of sequence recognition by tyrosine kinases and SH2 domains using bacterial peptide display” (eLife, 2023)

Legend:
[1] = target: Fes (UniProt P07332); assay: phosphorylation enrichment, bacterial display (enrichment ratio); higher = better substrate or ligand; peptides without Tyr show the background
[2] = target: Fyn (UniProt P06241); assay: as above
[3] = target: FGFR3 (UniProt P22607); assay: as above
[4] = target: MERTK (UniProt Q12866); assay: as above
MERTK, sequence (Q12866 whole entry, looked up): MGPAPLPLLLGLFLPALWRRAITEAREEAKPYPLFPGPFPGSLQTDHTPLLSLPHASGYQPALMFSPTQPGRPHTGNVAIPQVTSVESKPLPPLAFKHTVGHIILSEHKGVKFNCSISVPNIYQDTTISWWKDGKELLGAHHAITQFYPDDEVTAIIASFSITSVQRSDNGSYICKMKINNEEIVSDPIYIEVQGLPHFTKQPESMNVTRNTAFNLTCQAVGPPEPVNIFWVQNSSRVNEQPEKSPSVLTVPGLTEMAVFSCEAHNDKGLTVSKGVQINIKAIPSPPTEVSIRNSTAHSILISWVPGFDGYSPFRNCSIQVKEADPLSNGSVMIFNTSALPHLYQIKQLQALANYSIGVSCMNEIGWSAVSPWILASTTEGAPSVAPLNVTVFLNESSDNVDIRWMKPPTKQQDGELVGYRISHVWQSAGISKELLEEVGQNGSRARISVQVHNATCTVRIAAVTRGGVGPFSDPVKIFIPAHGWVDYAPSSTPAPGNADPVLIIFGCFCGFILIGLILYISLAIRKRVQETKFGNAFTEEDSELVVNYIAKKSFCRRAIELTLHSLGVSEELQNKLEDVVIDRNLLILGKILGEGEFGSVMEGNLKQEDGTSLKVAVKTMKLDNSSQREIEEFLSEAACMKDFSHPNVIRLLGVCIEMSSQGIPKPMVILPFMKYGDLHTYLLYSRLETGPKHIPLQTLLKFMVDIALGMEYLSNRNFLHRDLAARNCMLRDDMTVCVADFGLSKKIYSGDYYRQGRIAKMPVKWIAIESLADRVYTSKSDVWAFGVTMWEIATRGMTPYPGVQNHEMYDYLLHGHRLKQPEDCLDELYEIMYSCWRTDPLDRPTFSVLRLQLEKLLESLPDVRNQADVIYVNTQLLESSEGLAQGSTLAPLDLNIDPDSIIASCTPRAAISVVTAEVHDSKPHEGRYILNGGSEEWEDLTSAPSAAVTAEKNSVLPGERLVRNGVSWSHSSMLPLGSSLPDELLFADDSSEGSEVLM

[5] = target: EPHB2 (UniProt P29323); assay: as above
EPHB2, sequence (P29323 whole entry, looked up): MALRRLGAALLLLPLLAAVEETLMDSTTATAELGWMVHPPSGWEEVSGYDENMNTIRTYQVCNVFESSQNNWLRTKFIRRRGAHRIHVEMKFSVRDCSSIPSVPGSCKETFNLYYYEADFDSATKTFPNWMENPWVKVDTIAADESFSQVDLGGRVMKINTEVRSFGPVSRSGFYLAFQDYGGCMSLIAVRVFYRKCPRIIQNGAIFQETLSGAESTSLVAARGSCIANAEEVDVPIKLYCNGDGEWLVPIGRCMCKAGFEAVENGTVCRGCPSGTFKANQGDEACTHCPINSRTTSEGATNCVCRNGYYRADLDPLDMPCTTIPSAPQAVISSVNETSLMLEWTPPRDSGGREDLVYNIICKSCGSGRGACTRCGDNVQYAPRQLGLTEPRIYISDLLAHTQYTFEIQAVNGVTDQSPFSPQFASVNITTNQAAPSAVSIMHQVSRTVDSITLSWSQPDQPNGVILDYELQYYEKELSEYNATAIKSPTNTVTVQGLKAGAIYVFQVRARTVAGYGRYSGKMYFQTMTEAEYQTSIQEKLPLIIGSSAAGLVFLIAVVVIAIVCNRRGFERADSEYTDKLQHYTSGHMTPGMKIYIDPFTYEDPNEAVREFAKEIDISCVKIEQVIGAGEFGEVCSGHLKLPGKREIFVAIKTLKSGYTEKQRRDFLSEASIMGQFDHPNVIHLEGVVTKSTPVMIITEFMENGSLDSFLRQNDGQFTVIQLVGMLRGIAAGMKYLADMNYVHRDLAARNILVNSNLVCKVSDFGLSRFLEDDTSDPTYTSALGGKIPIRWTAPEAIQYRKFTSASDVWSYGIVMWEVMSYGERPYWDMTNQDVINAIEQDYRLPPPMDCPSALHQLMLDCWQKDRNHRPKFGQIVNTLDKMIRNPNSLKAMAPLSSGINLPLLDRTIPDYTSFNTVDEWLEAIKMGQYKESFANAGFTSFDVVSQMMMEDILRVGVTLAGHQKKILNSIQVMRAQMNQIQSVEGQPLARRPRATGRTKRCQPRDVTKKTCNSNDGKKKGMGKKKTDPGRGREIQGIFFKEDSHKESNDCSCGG

[6] = target: FGFR1 (UniProt P11362); assay: as above
[7] = test system: AncSZ; assay: as above
[8] = test system: Fer (mouse); assay: as above
[9] = target: Jak2 (UniProt O60674); assay: as above
Jak2, sequence (O60674 whole entry, looked up): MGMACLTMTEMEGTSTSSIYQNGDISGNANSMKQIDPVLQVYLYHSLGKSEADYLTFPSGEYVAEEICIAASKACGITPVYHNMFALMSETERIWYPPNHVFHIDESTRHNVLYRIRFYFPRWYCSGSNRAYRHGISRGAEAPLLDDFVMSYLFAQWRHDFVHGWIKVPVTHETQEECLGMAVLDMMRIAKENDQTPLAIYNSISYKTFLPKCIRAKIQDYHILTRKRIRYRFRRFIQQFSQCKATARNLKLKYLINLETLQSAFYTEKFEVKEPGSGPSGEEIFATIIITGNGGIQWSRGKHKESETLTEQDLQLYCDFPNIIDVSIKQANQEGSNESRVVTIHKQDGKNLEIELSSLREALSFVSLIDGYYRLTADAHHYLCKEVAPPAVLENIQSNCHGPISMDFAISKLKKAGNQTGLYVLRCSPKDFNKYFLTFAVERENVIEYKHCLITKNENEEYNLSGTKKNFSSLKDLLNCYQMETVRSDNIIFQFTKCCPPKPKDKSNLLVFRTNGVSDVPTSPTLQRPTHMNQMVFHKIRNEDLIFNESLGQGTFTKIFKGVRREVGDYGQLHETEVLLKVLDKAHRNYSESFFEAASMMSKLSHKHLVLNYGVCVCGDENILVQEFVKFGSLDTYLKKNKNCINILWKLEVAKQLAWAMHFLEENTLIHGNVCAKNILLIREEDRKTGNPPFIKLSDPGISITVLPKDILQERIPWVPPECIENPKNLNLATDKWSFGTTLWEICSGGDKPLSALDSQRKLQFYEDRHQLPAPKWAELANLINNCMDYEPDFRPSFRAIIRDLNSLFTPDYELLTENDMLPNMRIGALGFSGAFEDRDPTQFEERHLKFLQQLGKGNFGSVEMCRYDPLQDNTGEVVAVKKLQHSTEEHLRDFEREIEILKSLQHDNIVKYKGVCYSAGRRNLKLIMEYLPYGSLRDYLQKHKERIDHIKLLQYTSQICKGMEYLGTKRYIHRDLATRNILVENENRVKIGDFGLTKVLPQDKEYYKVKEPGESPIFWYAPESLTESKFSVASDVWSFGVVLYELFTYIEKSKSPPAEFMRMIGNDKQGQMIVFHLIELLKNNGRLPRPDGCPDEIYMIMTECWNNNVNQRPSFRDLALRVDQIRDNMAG

[10] = target: EPHB1 (UniProt P54762); assay: as above
[11] = test system: c-Src; assay: as above
[12] = test system: c-Abl (mouse); assay: as above
[13] = target: Hck (UniProt P08631); assay: as above
[14] = target: SHP2-C SH2; assay: SH2 binding enrichment of the phosphorylated peptide, bacterial display (enrichment ratio); higher = better substrate or ligand; peptides without Tyr show the background
[15] = target: Grb2 SH2 (UniProt P62993); assay: as above
Grb2 SH2, sequence (P62993 whole entry, looked up): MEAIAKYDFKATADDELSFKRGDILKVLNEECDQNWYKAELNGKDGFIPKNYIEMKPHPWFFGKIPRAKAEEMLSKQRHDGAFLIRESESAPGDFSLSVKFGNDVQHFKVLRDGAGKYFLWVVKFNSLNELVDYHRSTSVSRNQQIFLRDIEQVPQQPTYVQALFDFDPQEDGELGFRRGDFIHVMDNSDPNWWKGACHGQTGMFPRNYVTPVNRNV

[16] = target: c-Src SH2; assay: as above
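Wherever SH2 binding enrichment of the phosphorylated peptide, bacterial display is given: peptide library displayed on the E. coli surface as eCPX fusions, selected cells deep-sequenced, score is each peptide's frequency after selection divided by its frequency in the input.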
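Wherever phosphorylation enrichment, bacterial display is given: 11-residue human phosphosite peptides and single-mutation variants displayed on the E. coli surface, counted by deep sequencing, each peptide's frequency after selection divided by its frequency in the unselected input library; frequency after pTyr selection over input frequency; kinase dosed for 20-30% of maximal phosphorylation in three min.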

Fes, sequence (P07332 whole entry, looked up): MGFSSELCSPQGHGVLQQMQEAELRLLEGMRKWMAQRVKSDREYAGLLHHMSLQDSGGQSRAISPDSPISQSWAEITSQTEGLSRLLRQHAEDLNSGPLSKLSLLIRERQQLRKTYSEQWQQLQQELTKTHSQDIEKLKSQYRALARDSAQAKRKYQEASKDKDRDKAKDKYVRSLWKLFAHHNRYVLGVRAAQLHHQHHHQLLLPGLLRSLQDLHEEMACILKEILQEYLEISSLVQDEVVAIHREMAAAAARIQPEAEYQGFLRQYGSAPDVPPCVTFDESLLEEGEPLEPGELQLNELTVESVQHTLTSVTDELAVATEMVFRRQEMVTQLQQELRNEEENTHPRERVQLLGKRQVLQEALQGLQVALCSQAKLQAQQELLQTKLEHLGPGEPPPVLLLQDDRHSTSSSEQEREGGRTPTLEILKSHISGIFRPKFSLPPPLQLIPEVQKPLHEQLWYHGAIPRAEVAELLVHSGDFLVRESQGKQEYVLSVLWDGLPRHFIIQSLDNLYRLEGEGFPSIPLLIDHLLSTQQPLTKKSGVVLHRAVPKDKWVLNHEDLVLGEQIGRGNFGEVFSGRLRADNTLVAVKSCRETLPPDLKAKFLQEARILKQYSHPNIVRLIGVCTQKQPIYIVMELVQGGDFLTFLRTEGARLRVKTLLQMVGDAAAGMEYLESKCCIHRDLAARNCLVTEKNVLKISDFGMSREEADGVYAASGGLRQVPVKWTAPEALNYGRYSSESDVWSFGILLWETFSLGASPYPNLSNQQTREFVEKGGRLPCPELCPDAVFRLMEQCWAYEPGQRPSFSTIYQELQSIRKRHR
Fyn, sequence (P06241 whole entry, looked up): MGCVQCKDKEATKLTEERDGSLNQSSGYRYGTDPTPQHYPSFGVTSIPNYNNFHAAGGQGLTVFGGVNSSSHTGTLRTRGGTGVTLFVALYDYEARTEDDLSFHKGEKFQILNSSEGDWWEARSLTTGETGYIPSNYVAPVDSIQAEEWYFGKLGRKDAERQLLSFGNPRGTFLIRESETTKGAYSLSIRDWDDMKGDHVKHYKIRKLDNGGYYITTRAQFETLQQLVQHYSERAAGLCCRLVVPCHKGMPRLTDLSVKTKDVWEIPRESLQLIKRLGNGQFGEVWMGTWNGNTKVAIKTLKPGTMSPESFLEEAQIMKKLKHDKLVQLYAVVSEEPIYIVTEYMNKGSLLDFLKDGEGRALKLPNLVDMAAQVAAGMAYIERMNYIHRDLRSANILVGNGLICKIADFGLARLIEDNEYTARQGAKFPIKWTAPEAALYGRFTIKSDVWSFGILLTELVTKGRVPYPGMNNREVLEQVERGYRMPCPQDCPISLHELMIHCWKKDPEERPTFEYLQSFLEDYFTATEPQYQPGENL

For VITDYYVDMKF [MPP4_Y567], the phosphorylation enrichment [1] was 1.23, the phosphorylation enrichment [2] was 0.881 and the phosphorylation enrichment [3] was 5.31. It also gave a phosphorylation enrichment [4] of 1.15, a phosphorylation enrichment [5] of 1.98 and a phosphorylation enrichment [6] of 7.13. The phosphorylation enrichment [7] was 1.61, the phosphorylation enrichment [8] was 1.4 and the phosphorylation enrichment [9] was 2.25. The phosphorylation enrichment [10] was 3.65, the phosphorylation enrichment [11] was 0.88 and the phosphorylation enrichment [12] was 1.18. The phosphorylation enrichment [13] was 0.929, the SH2 binding enrichment [14] was 0.6 and the SH2 binding enrichment [15] was 0.993. It also gave an SH2 binding enrichment [16] of 1.31.
With VKANTYEKFWL [GATM_Y100_P105L_YF] the phosphorylation enrichment [1] was 1.07, the phosphorylation enrichment [2] was 0.803 and the phosphorylation enrichment [3] was 0.722. It also gave a phosphorylation enrichment [4] of 1.19, a phosphorylation enrichment [5] of 0.545 and a phosphorylation enrichment [6] of 0.382. The phosphorylation enrichment [7] was 0.887, the phosphorylation enrichment [8] was 2.9 and the phosphorylation enrichment [9] was 0.821. The phosphorylation enrichment [10] was 0.562, the phosphorylation enrichment [11] was 1.11 and the phosphorylation enrichment [12] was 0.672. For the same sequence, the phosphorylation enrichment [13] was 0.684, the SH2 binding enrichment [14] was 0.807 and the SH2 binding enrichment [15] was 0.819. For the same sequence, the SH2 binding enrichment [16] was 0.794.
Sequence VKMLEYRGKDV [CASP5_Y74_L75R] has a phosphorylation enrichment [1] of 0.737, a phosphorylation enrichment [2] of 0.476 and a phosphorylation enrichment [3] of 0.473. It also gave a phosphorylation enrichment [4] of 0.443, a phosphorylation enrichment [5] of 0.416 and a phosphorylation enrichment [6] of 0.489. It also gave a phosphorylation enrichment [7] of 0.68, a phosphorylation enrichment [8] of 0.495 and a phosphorylation enrichment [9] of 0.792. For the same sequence, the phosphorylation enrichment [10] was 0.459, the phosphorylation enrichment [11] was 0.465 and the phosphorylation enrichment [12] was 0.523. It also gave a phosphorylation enrichment [13] of 0.46, an SH2 binding enrichment [14] of 0.628 and an SH2 binding enrichment [15] of 0.618. It also gave an SH2 binding enrichment [16] of 0.386.
VLAHKYHGGGG [HBB_Y146_A141V] gave a phosphorylation enrichment [1] of 0.498, a phosphorylation enrichment [2] of 0.366 and a phosphorylation enrichment [3] of 0.352. For the same sequence, the phosphorylation enrichment [4] was 0.352, the phosphorylation enrichment [5] was 0.362 and the phosphorylation enrichment [6] was 0.349. The phosphorylation enrichment [7] was 0.376, the phosphorylation enrichment [8] was 0.366 and the phosphorylation enrichment [9] was 0.434. The phosphorylation enrichment [10] was 0.354, the phosphorylation enrichment [11] was 0.363 and the phosphorylation enrichment [12] was 0.405. For the same sequence, the phosphorylation enrichment [13] was 0.405, the SH2 binding enrichment [14] was 0.852 and the SH2 binding enrichment [15] was 0.939. The SH2 binding enrichment [16] was 0.464.
VLNHAYENLTR [SYNE2_Y3255_D3253H] showed a phosphorylation enrichment [1] of 0.579, a phosphorylation enrichment [2] of 0.33 and a phosphorylation enrichment [3] of 0.625. For the same sequence, the phosphorylation enrichment [4] was 0.303, the phosphorylation enrichment [5] was 0.4 and the phosphorylation enrichment [6] was 0.494. The phosphorylation enrichment [7] was 0.565, the phosphorylation enrichment [8] was 0.417 and the phosphorylation enrichment [9] was 0.507. It also gave a phosphorylation enrichment [10] of 0.366, a phosphorylation enrichment [11] of 0.405 and a phosphorylation enrichment [12] of 0.5. For the same sequence, the phosphorylation enrichment [13] was 0.383, the SH2 binding enrichment [14] was 1.89 and the SH2 binding enrichment [15] was 26.7. For the same sequence, the SH2 binding enrichment [16] was 10.5.
VLTSTYRGGGG [HBA1_Y141_K140T] showed a phosphorylation enrichment [1] of 0.628, a phosphorylation enrichment [2] of 0.38 and a phosphorylation enrichment [3] of 0.483. For the same sequence, the phosphorylation enrichment [4] was 0.367, the phosphorylation enrichment [5] was 0.376 and the phosphorylation enrichment [6] was 0.361. The phosphorylation enrichment [7] was 0.575, the phosphorylation enrichment [8] was 0.385 and the phosphorylation enrichment [9] was 0.509. It also gave a phosphorylation enrichment [10] of 0.315, a phosphorylation enrichment [11] of 0.394 and a phosphorylation enrichment [12] of 0.425. The phosphorylation enrichment [13] was 0.377, the SH2 binding enrichment [14] was 0.645 and the SH2 binding enrichment [15] was 0.84. It also gave an SH2 binding enrichment [16] of 0.452.
For VNNLVYENING [FRS2_Y306_K303N], the phosphorylation enrichment [1] was 2.21, the phosphorylation enrichment [2] was 6.01 and the phosphorylation enrichment [3] was 0.576. The phosphorylation enrichment [4] was 5.31, the phosphorylation enrichment [5] was 4.94 and the phosphorylation enrichment [6] was 0.57. It also gave a phosphorylation enrichment [7] of 1.17, a phosphorylation enrichment [8] of 11.8 and a phosphorylation enrichment [9] of 0.571. For the same sequence, the phosphorylation enrichment [10] was 11.8, the phosphorylation enrichment [11] was 5.42 and the phosphorylation enrichment [12] was 0.703. For the same sequence, the phosphorylation enrichment [13] was 7.03, the SH2 binding enrichment [14] was 1.35 and the SH2 binding enrichment [15] was 5.57. The SH2 binding enrichment [16] was 2.29.
Sequence VPHECYAKVFD [ALB_Y394_D389V] has a phosphorylation enrichment [1] of 1.22, a phosphorylation enrichment [2] of 0.564 and a phosphorylation enrichment [3] of 0.727. It also gave a phosphorylation enrichment [4] of 0.497, a phosphorylation enrichment [5] of 0.716 and a phosphorylation enrichment [6] of 0.619. It also gave a phosphorylation enrichment [7] of 1.07, a phosphorylation enrichment [8] of 0.542 and a phosphorylation enrichment [9] of 0.928. For the same sequence, the phosphorylation enrichment [10] was 0.647, the phosphorylation enrichment [11] was 0.561 and the phosphorylation enrichment [12] was 0.945. For the same sequence, the phosphorylation enrichment [13] was 0.572, the SH2 binding enrichment [14] was 1.55 and the SH2 binding enrichment [15] was 0.887. The SH2 binding enrichment [16] was 2.33.
